Residue numbers refer to the chain shown, from its start.
Assays:
Assay in all cases: pull-down
GST-PI31-WT = target: T1, GST-PI31-WT (Drosophila, UniProt Q9V637 1-270)
T1 sequence: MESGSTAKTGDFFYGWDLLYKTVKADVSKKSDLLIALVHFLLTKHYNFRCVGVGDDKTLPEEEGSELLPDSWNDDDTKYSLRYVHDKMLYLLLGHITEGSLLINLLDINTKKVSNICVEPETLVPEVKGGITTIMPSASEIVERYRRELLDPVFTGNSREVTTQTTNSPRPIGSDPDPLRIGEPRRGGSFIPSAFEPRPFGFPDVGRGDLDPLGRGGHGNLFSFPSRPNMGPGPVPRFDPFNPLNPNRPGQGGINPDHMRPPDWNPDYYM

GST-PI31-S168E = target: T2, GST-PI31-S168E (Drosophila, UniProt Q9V637 1-270, S168E)
T2 sequence: T1 sequence with S168E

GST-PI31-S168D = target: T3, GST-PI31-S168D (Drosophila, UniProt Q9V637 1-270, S168D)
T3 sequence: T1 sequence with S168D

Measured: binding result

B1: FLAG-dDYNLL1 (recombinant, E. coli) (natural protein)
chain: MSDRKAVIKNADMSEEMQQDAVDCATQALEKYNIEKDIAAYIKKEFDKKYNPTWHCIVGRNFGSYVTHETRHFIYFYLGQVAILLFKSG
binds: all assays above

— doi:10.1101/364463 (bioRxiv, 2019)
